Laboratory results: patent US10808017B2, “Ubiquitin variants and uses therof as 53BP1 inhibitors” (The Governing Council of the University of Toronto, priority 2016, dated 2020)

Legend:
Details in all cases: 293T Flp-In/T-Rex extracts, LC-MS/MS, one column per replicate IP
HIST1H2BG = biological target: T1, HIST1H2BG (Homo sapiens, UniProt P62807); experiment: Flag IP-MS of i53/i53-DM baits: prey HIST1H2BG; format: binding
T1 construct: endogenous in cells; host or cells: HEK293 Flp-In/T-REx
Experimental: (§1) Following immunoprecipitation of Flag-tagged i53 and i-53-DM from HEK293 Flp-In/T-REx cells, peptides were identified using LC-MS/MS. Proteins were digested in solution with trypsin (Sigma, T7575-1KT) and dried to completeness. For LC-MS/MS analysis, peptides were reconstituted in 5% formic acid and loaded onto a 12-15 cm fused silica column with pulled tip packed in-house with 3.5 μm Zorbax C18 (Agilent Technologies, Calif., USA).
(§2) i53 and i53-DM precipitates were analyzed using an LTQ (Thermo Scientific) coupled to an Agilent 1100 Series HPLC (Agilent Technologies). Peptides were eluted from the column using a 90 min period cycle with a linear gradient from 0% to 40% ACN in 0.1% formic acid. Tandem MS spectra were acquired in a data-dependent mode for the top 5 (LTQ) most abundant ions using collision-induced dissociation. Acquired spectra were searched against the human Refseq_V53 database using Mascot (Matrix Science).
(§3) 293T Flp-In/T-Rex cell lines were generated that expressed Flag-tagged i53 or i53-DM under the control of a tetracycline-inducible promoter as previously described. Nine IP-MS experiments were analyzed (3 biological replicate IPs each for control i53- and i53-DM expressing cell lines). The interacting proteins were identified by MASCOT to identify high-confidence interactors for i53. […]

RPS29 = biological target: T2, RPS29 (Homo sapiens, UniProt P62273); experiment: Flag IP-MS of i53/i53-DM baits: prey RPS29; format: binding
T2 construct: Following immunoprecipitation of Flag-tagged i53 and i-53-DM from HEK293 Flp-In/T-REx cells, peptides were identified using LC-MS/MS; endogenous in cells; host or cells: HEK293 Flp-In/T-REx cells
Experimental: as §1, §2, §3

MGA = biological target: T3, MGA (Homo sapiens, UniProt Q8IWI9); experiment: Flag IP-MS of i53/i53-DM baits: prey MGA; format: binding
T3 construct: endogenous in cells; host or cells: HEK293 Flp-In/T-REx cells
Experimental: as §1, §2, §3

INTS3 = biological target: T4, INTS3 (Homo sapiens, UniProt Q68E01); experiment: Flag IP-MS of i53/i53-DM baits: prey INTS3; format: binding
T4 construct: Following immunoprecipitation of Flag-tagged i53 and i-53-DM from HEK293 Flp-In/T-REx cells, peptides were identified using LC-MS/MS; endogenous in cells; host or cells: HEK293 Flp-In/T-REx cells
Experimental: as §1, §2, §3

RAB34 = experiment: Flag IP-MS of i53/i53-DM baits: prey RAB34; format: binding, human
Experimental: as §1, §2, §3

KRT6A = biological target: T5, KRT6A (Homo sapiens, UniProt P02538); experiment: Flag IP-MS of i53/i53-DM baits: prey KRT6A; format: binding
T5 construct: Following immunoprecipitation of Flag-tagged i53 and i-53-DM from HEK293 Flp-In/T-REx cells, peptides were identified using LC-MS/MS; endogenous in cells; host or cells: HEK293 Flp-In/T-REx cells
T5 sequence (P02538 1-564): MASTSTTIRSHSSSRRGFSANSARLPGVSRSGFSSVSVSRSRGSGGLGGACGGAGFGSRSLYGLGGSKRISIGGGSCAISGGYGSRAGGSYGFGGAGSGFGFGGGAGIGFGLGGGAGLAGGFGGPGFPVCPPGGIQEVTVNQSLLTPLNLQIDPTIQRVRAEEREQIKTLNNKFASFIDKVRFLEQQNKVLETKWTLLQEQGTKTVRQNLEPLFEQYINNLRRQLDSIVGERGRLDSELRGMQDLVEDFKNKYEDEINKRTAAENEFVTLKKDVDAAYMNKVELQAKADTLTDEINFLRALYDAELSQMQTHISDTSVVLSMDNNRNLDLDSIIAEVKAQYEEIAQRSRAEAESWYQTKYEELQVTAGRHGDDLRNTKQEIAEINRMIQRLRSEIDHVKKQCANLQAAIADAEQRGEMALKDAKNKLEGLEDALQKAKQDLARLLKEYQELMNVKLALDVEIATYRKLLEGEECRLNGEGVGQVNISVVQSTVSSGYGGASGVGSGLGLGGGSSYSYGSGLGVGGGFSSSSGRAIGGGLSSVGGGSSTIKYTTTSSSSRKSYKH
Experimental: as §1, §2, §3

HIST2H2BE = biological target: T6, HIST2H2BE (Homo sapiens, UniProt Q16778); experiment: Flag IP-MS of i53/i53-DM baits: prey HIST2H2BE; format: binding
T6 construct: endogenous in cells; host or cells: HEK293 Flp-In/T-REx cells
Experimental: as §1, §2, §3

TXNDC12 = biological target: T7, TXNDC12 (Homo sapiens, UniProt O95881); experiment: Flag IP-MS of i53/i53-DM baits: prey TXNDC12; format: binding
T7 construct: endogenous in cells; host or cells: HEK293 Flp-In/T-REx
Experimental: as §1, §2, §3

RPL17 = biological target: T8, RPL17 (Homo sapiens, UniProt P18621); experiment: Flag IP-MS of i53/i53-DM baits: prey RPL17; format: binding
T8 construct: endogenous in cells; host or cells: HEK293 Flp-In/T-REx
Experimental: as §1, §2, §3

T3 sequence (Q8IWI9 whole entry): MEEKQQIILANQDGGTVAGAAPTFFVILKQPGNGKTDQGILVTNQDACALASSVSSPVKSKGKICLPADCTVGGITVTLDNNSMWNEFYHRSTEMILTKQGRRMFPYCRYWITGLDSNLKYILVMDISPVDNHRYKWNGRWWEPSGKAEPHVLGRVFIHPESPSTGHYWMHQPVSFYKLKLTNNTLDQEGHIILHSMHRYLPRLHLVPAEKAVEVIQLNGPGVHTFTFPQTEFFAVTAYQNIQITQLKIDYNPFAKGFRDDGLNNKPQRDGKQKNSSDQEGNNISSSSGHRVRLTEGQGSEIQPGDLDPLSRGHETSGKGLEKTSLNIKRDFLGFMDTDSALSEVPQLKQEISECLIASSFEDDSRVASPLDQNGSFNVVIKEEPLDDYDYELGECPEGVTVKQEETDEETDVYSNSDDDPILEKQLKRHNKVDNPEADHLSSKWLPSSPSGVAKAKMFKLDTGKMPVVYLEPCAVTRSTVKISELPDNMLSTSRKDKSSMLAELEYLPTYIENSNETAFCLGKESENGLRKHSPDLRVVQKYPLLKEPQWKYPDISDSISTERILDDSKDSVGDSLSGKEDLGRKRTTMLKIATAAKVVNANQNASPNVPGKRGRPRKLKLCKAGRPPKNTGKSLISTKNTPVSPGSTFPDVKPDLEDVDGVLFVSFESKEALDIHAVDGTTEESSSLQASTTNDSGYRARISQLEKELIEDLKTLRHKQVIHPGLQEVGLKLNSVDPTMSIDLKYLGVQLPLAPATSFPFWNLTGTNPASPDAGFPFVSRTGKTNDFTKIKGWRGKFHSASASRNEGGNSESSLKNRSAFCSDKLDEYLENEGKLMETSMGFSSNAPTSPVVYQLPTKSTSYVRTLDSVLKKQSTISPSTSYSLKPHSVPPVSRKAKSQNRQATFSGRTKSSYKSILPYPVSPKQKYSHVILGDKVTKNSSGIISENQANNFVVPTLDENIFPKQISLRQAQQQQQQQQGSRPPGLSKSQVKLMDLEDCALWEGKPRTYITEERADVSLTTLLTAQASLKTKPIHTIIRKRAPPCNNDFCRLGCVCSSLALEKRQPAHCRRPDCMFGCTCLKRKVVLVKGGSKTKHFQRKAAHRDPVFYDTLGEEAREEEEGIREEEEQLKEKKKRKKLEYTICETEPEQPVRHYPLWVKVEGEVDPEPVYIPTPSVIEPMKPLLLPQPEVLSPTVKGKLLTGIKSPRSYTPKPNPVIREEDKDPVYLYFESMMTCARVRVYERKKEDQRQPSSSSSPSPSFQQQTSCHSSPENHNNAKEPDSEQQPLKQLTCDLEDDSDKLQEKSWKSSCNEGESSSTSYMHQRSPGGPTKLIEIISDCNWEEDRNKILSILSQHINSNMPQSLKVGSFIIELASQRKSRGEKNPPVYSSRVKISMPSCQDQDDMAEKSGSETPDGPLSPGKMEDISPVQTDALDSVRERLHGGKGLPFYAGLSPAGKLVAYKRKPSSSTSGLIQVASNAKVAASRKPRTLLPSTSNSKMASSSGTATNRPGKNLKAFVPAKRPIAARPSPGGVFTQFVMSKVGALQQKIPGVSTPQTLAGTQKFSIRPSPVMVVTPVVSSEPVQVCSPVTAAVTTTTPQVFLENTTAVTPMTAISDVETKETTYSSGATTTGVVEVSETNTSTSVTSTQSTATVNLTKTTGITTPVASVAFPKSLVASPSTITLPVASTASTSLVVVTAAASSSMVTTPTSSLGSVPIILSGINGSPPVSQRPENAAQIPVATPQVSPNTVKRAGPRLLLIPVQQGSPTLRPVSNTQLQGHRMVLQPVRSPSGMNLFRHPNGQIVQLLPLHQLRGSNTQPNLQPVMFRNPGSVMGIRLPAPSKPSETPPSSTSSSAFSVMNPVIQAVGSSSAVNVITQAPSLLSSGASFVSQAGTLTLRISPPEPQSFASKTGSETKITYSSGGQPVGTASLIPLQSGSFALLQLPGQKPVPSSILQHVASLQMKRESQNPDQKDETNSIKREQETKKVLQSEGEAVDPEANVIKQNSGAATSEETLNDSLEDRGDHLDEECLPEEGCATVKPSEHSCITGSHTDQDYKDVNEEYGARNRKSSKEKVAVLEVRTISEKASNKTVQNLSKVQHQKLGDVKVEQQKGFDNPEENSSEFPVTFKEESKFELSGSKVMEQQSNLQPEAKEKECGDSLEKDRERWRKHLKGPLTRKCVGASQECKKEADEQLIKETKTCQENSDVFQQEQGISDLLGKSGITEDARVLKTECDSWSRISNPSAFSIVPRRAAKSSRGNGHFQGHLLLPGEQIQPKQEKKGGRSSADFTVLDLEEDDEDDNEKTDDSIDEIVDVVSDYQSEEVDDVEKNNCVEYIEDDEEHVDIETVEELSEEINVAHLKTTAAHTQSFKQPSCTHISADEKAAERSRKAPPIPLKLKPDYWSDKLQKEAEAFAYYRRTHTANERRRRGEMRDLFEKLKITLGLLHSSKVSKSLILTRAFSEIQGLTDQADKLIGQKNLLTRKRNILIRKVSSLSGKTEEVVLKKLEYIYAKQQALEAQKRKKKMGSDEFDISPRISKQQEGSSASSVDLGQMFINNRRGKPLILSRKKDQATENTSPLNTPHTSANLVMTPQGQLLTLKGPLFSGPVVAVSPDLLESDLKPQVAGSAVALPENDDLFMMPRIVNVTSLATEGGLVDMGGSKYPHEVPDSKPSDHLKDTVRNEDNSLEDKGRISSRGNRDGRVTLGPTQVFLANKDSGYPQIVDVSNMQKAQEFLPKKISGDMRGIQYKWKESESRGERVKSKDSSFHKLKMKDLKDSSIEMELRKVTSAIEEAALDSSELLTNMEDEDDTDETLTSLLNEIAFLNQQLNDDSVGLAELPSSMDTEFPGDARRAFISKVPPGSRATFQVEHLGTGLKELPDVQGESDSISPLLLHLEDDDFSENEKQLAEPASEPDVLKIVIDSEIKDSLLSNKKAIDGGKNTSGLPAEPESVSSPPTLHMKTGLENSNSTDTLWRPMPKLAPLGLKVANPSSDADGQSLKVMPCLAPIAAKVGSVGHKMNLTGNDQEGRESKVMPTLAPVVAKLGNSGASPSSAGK
T7 sequence (O95881 27-172): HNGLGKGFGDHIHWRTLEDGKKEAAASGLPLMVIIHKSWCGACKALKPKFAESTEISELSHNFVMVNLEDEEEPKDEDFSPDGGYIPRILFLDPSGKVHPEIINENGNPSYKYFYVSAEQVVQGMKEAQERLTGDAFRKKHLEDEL
T4 sequence (Q68E01 whole entry): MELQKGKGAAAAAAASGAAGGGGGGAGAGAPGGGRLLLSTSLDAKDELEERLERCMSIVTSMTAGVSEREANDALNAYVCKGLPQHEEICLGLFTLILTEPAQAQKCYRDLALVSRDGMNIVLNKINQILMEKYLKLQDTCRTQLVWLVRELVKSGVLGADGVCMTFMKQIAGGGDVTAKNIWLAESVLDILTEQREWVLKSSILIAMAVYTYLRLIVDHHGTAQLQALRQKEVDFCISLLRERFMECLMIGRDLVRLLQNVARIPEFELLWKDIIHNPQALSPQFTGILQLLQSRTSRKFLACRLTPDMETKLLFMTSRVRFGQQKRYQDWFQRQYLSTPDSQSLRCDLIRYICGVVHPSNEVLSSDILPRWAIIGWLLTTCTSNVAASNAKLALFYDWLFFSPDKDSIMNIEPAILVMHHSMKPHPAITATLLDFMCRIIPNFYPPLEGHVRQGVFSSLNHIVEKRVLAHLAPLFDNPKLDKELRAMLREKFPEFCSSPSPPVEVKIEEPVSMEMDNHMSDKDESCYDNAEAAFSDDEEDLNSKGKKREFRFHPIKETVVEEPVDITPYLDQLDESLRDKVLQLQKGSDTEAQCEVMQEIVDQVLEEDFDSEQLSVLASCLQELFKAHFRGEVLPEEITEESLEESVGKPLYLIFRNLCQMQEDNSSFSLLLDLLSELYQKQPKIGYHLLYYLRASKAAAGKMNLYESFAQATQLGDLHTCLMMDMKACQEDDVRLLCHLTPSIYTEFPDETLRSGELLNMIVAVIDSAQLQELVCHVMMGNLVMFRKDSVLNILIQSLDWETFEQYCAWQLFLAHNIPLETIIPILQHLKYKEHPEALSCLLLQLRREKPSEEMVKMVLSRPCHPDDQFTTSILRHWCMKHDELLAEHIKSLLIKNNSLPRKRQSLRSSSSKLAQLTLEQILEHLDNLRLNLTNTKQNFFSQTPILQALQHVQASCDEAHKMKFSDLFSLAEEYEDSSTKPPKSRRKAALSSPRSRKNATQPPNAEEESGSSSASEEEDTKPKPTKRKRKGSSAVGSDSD

| Substance | Total peptides, HIST1H2BG (HIST1H2BG) | Total peptides, RPS29 (RPS29) | Total peptides, MGA (MGA) | Total peptides, INTS3 (INTS3) | Total peptides, RAB34 (RAB34) | Total peptides, KRT6A (KRT6A) | Total peptides, HIST2H2BE (HIST2H2BE) | Total peptides, TXNDC12 (TXNDC12) | Total peptides, RPL17 (RPL17) |
| --- | --- | --- | --- | --- | --- | --- | --- | --- | --- |
| i53: UbvG08 with C-terminal di-glycine removed and I44A mutation; genetically encoded inhibitor of 53BP1 | 4 |  |  |  |  |  |  |  |  |
| i53-DM: 53BP1-binding deficient mutant of i53 (P69L, L70V) |  | 3 | 2 | 3 | 2 | 3 | 3 | 2 | 5 |
